Measured values published in article PMC5480026.

What was measured:
[1] = molecular target: T1, hIFNγ receptor hIFNGR1 (human (endogenous in WISH)) (UniProt P15260)
T1 sequence: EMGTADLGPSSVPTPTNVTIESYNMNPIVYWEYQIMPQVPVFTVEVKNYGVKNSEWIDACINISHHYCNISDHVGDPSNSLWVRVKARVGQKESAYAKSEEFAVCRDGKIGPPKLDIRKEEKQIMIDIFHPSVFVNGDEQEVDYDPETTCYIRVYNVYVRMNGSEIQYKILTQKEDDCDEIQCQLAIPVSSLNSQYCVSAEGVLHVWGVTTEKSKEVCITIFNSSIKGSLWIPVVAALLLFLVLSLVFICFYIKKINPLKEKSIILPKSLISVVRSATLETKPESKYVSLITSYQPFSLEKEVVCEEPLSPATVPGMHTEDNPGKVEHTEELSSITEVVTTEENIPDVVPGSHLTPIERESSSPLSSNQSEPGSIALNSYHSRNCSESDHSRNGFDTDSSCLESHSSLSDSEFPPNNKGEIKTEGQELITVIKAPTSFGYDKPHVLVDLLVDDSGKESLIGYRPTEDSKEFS

[2] = molecular target: T1, hIFNγ receptor hIFNGR1 (human (endogenous in WISH)); remark: listed apart in the source

Substance | specific biological activity after tag removal, kynurenine bioassay on WISH cells [1] | biological activity, kynurenine bioassay on WISH cells [2]
human interferon-gamma (hIFNγ), tag-free after enterokinase removal of the His6-FLAG tag (from UniProt P01579 24-161) (ligand) | 3e+07 IU/mg | 
His6-FLAG-hIFNγ fusion protein expressed in E. coli (from UniProt P01579 24-161) (ligand) |  | 100 times lower
His6-FLAG-K88Q fusion protein expressed in E. coli (from UniProt P01579 24-161) (ligand) |  | 100 times lower
